3 molecules from patent US20240026019A1 (Innovent, published 2024) can be followed below.

Test [1] addresses T1, rh-TNFR2-His (recombinant human TNFR2, His tag) (human, UniProt P20333 23-257).
T1 construct: Soluble antigen of the ForteBio assay; not shown: His tag
T1 sequence (looked up): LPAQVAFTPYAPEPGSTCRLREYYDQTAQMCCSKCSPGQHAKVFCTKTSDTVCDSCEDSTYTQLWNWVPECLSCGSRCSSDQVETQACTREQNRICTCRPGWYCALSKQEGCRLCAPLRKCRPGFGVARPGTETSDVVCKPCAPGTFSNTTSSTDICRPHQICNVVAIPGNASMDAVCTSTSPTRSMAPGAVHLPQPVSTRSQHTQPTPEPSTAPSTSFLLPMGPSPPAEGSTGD
The test can be described thus: BLI (ForteBio), antibody on sensor, 100 nM rh-TNFR2-His in solution, 1:1 model. How it is done:
(§1) In the present invention, the equilibrium dissociation constant (KD) for the binding of the 3 exemplary chimeric antibodies of the present invention described above to human TNFR2 (hTNFR2), cynomolgus monkey TNFR2 (cTNFR2), murine TNFR2(mTNFR2), and human TNFR1(hTNFR1) was determined by biological optical interferometry (ForteBio). For comparison, the equilibrium dissociation constant (KD) of a positive control antibody OPI (humanized antibody SBT-002e in WO 2017083525, VH sequence of SEQ ID NO: 58, VL sequence of SEQ ID NO: 59) was determined.
(§2) The ForteBio affinity assay was performed according to the prior art (Estep, P, et al., High throughput solution based measurement of antibody-antigen affinity and epitope binning. MAbs, 2013.5(2): p. 270-278). Briefly, a sensor was equilibrated offline in an assay buffer for 30 min, and was equilibrated online for 60 s to establish a baseline. The purified antibodies obtained as described above were loaded online onto an AHQ sensor (ForteBio) for the ForteBio affinity assay. The sensor with the loaded antibodies was then exposed to each of 100 nM hTNFR2, cTNFR2, mTNFR2, and hTNFR1 antigens for 5 min before transferring the sensor to an assay buffer for 5 min of dissociation for dissociation rate measurement. The kinetic analysis was performed using a 1:1 binding model.
(In general: BLI is a label-free optical method that tracks binding on a fibre tip over time.)

Test [2] has as its target T2, hTNFR2 protein (coated on the microplate in the blocking ELISA) (human, UniProt P20333 23-257).
T2 construct: The construct coated in the ELISA is not described (it may or may not be the immunogen, Sino biological 10417-H03H)
T2 sequence (looked up): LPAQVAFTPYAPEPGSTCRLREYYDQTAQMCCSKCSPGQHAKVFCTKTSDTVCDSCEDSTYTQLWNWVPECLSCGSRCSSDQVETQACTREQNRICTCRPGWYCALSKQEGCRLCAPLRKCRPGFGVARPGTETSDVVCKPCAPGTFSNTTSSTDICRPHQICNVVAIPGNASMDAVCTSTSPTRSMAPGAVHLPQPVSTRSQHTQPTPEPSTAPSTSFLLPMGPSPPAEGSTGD
The experiment in a line: blocking ELISA: hTNFR2 coated on the plate, binding of biotinylated TNFα blocked by the antibody; the table row is headed EC50; unit taken from the axis log Conc nM. How it is done: The ability of the chimeric antibodies 3C4, 69B1, and 72G8 and the control antibody OPI to block the binding of human TNFα to hTNFR2 was assayed by ELISA.
The hTNFR2 protein was resuspended and dissolved to a concentration of 2 μg/mL with PBS, and a microplate was coated with the protein and incubated overnight. The plate was blocked with 5% BSA for 1 h, and a biotinylated antigen (Recombinant Biotinylated TNFα protein (ACRO)) was diluted to 2 μg/mL and added to the plate at 10 μL/well. The antibodies prepared as described above (3C4, 69B1, and 72G8) were each diluted in a gradient starting from the maximum concentration of 300 nM for a total of 8 or 12 dilution gradients. The diluted antibodies were added at 100 μL/well and incubated in PBS on ice for 30 min. The antigen-antibody mixture was incubated in a microplate for 90 min and washed three times with PBS, and the supernatant was discarded. 100 μL of Avidin-HRP (Invitrogen) diluted at a 1:5000 ratio was added to each well, incubated at room temperature for 30 min, and washed six times with PBS. A TMB chromogenic solution (solarbio) was added to the plate at 100 μL/well for color development for 1 min, and the reaction was stopped by adding a stop buffer (solarbio) at 100 μL/well. The plate was read on a microplate reader at OD₄₅₀ and OD₆₂₀.
(In general: ELISA stands for enzyme-linked immunosorbent assay.)

Test [3] addresses T3, CYNO-TNFR2-His (cynomolgus monkey TNFR2, His tag) (cynomolgus monkey, UniProt A0A2K5VET2 132-366).
T3 construct: Soluble antigen of the ForteBio assay; also called cTNFR2; not shown: His tag
T3 sequence: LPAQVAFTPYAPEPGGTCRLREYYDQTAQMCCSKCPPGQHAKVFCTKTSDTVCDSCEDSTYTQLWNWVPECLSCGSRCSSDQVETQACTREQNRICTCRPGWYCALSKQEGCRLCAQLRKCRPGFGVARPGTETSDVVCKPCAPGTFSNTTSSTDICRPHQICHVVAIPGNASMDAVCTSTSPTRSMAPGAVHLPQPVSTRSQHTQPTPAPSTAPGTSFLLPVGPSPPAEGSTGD
The experiment in a line: BLI (ForteBio), antibody on sensor, 100 nM CYNO-TNFR2-His in solution, 1:1 model. Here is the method: as §1, §2

B1: chimeric antibody 69B1 (antibody, human IgG1, kappa, V domains shown)
VH: QIQLVQSGPELKKPGETVKISCKASGYTFTDYSMNWVKQAPGKGLKWMGWLNTETGEPIYADDFKGRFVFSLETSASTAYLEINNLNDEDTATYFCAREAIYYGTSYVLDYWGQGTSVTVSS
VL: DIVLTQSPASLAVSLGQRATISCRASESVEYYGTNFMQWYQQKPGQPPKLLIYSASNVESGVPARFSGSGSGTDFSLNIHPVEEDDIAVYFCQQSRKDPSTFGEGTNLEIKR
As for B1, in test [1], the Kd (usually the constant that tells how readily two partners part at equilibrium) was 0.265 nM, the koff (usually the rate constant with which the complex falls apart) was 0.000519 s⁻¹ and the kon (commonly a measure of how fast the partners come together) was determined as 1.96e+06 M⁻¹ s⁻¹. The half-inhibitory concentration (IC50) (as a rule, the concentration that gives 50% inhibition) in test [2] is 2.15 nM. Also, in test [3], the Kd was found to be 1.11 nM, the koff was 0.00198 s⁻¹ and the kon came to 1.79e+06 M⁻¹ s⁻¹.

B2: chimeric antibody 3C4 (antibody, human IgG1, kappa, V domains shown)
VH: QVQLQQSGPELVKPGASVTISCKASDYSFTNYYIHWVKQRPGQGLEWIGWIYPGNVITKYHEKFKGKAILTADTSSTTAYMQLNSLTSEDSAVYFCARSRATGYFDYWGQGTTLTVSS
VL: DIQMTQTTSSLSASLGDRVTISCRASQDIRNYLNWFQQKPDGTIKLLIYYTSRLHSGVPSRFSGSGSGTDYSLTISNLEQEDMATYFCQQFNTLPWTFGGGTKLEIKR
B2: in test [1], the Kd was found to be 1.36 nM, the koff was 0.00176 s⁻¹ and the kon amounted to 1.29e+06 M⁻¹ s⁻¹. This molecule returned an IC50 in test [2] of 3.11 nM. In test [3], the Kd turned out to be 1.42 nM, the koff is 0.00201 s⁻¹ and the kon came to 1.41e+06 M⁻¹ s⁻¹.

B3: positive control antibody OPI (humanized antibody SBT-002e in WO 2017083525) (antibody, V domains shown)
VH: QVTLKESGPALVKPTQTLTLTCTFSGFSLSTSGMGVGWIRQPPGKALEWLAHIWWDDDKFYNPSLKSRLTISKDTSKNQVVLTMTNMDPVDTATYYCARLTGTRYFDYWGQGTTVTVSS
VL: DVQMTQSPSSLSASVGDRVTITCKASQDINKFIAWYQQKPGKAPKLLIHYTSTLQPGIPSRFSGSGSGRDYTFTISSLQPEDIATYYCLQYGNLWTFGGGTKVEIK
notes: also called Benchmark OPI
Take B3: in test [1], the Kd turned out to be 4.18 nM, the koff amounted to 0.000229 s⁻¹ and the kon came to 54800 M⁻¹ s⁻¹. In addition, in test [2], the IC50 came to 4.56 nM. For the same molecule, in test [3], the affinity, expressed as Kd, was 1.15 nM; the koff was 0.000328 s⁻¹; the kon was 284000 M⁻¹ s⁻¹.
